Experimental data taken from patent publication US20080219974A1 (published 2008).
Substitutions are numbered along the chain they refer to. In names and notes the source's numbering stands. Where two headings read alike, the source gives them in different places.

B1: HM1.24_H2L2 (antibody, V domains shown)
VH: EVQLVESGGGLVKPGGSLRLSCAASGYTFTPYWMQWVRQAPGKGLEWMGSIFPGDGDTRYSQSFQGQVTISADKSISTAYMELSSLRSEDTAVYYCARGLRRGGYYFDYWGQGTLVTVSS
VL: DIVMTQSPSSLSASVGDRVTITCQASQDVNTAVAWYQQKPDQSPKLLIYSASNRYTGVPDRITGSGSGTDFTLTISSLQAEDVAVYYCQQHYSTPFTFGSGTKLEIKR
B2: H2L3_Hybrid_S239D/I332E (antibody, V domains shown)
VH: B1 VH
VL: B1 VL with S9P, S10T, A13L, V15P, D17E, I21L, T22S, Q24R, A80P, V83F
B3: H0L0_IgG1_S239D/I332E (antibody, V domains shown)
VH: QVQLQQSGAELARPGASVKLSCKASGYTFTPYWMQWVKQRPGQGLEWIGSIFPGDGDTRYSQKFKGKATLTADKSSSTAYMQLSILAFEDSAVYYCARGLRRGGYYFDYWGQGTTLTVSS
VL: DIVMTQSHKFMSTSVGDRVSITCKASQDVNTAVAWYQQKPGQSPKLLIYSASNRYTGVPDRITGSGSGTDFTFTISSVQAEDLALYYCQQHYSTPFTFGSGTKLEIK
B4: HM1.24_H0L0_IgG1_WT (antibody, V domains shown)
VH: B3 VH
VL: DIVMTQSHKFMSTSVGDRVSITCKASQDVNTAVAWYQQKPGQSPKLLIYSASNRYTGVPDRITGSGSGTDFTFTISSVQAEDLALYYCQQHYSTPFTFGSGTKLEIKR
B5: HM1.24_H1.2 heavy chain variant with HM1.24_L4 light chain (antibody, V domains shown)
VH: QVQLVQSGAEVKKPGASVKVSCKASGYTFTPYWMQWVRQAPGQGLEWMGSIFPGSGDTRYSQSFQGQVTISADKSISTAYMELSRLRSDDTAVYYCARGLRRGGYYFDYWGQGTLVTVSS
VL: DIVMTQSPLSLPVTLGQPASISCKASQDVNTAVAWYLQKPGKSPKLLIYSASNRYTGVPDRITGSGSGTDFTLKISRVEAEDVGVYYCQQHYSTPFTFGSGTKLEIKR
B6: HM1.24_H1.2_L2_Hybrid_S239D/I332E (antibody, V domains shown)
VH: B5 VH
VL: B1 VL
B7: HM1.24_H1L4 (antibody, V domains shown)
VH: B5 VH with S55D
VL: B5 VL
B8: HM1.24_H1.1_L2_Hybrid_S239D/I332E (antibody, V domains shown)
VH: B5 VH with S55E
VL: B1 VL
B9: HM1.24_H1.3_L2_Hybrid_S239D/I332E (antibody, V domains shown)
VH: B5 VH with S55D, G56S
VL: B1 VL
B10: HM1.24_H1.4 heavy chain variant with HM1.24_L4 light chain (antibody, V domains shown)
VH: B5 VH with S55D, G56A
VL: B5 VL
B11: HM1.24_H2L4 (antibody, V domains shown)
VH: B1 VH
VL: B5 VL
B12: H1L3_Hybrid_S239D/I332E (antibody, V domains shown)
VH: B5 VH with S55D
VL: B1 VL with S9P, S10T, A13L, V15P, D17E, I21L, T22S, Q24R, A80P, V83F
B13: HM1.24_H2.4 heavy chain variant with HM1.24_L4 light chain (antibody, V domains shown)
VH: B1 VH with G56A
VL: B5 VL
B14: HM1.24_H1.4_L2_Hybrid_S239D/I332E (antibody, V domains shown)
VH: B5 VH with S55D, G56A
VL: B1 VL
B15: HM1.24_H2.1 heavy chain variant with HM1.24_L4 light chain (antibody, V domains shown)
VH: B1 VH with D55E
VL: B5 VL
B16: HM1.24_H2.3 heavy chain variant with HM1.24_L4 light chain (antibody, V domains shown)
VH: B1 VH with G56S
VL: B5 VL
B17: HM1.24_H1.1 heavy chain variant with HM1.24_L4 light chain (antibody, V domains shown)
VH: B5 VH with S55E
VL: B5 VL
B18: HM1.24_H1.3 heavy chain variant with HM1.24_L4 light chain (antibody, V domains shown)
VH: B5 VH with S55D, G56S
VL: B5 VL
B19: HM1.24_H1L2 (antibody, V domains shown)
VH: B5 VH with S55D
VL: B1 VL

Tests used:
[1] = molecular target: T1, Human HM1.24 on RPMI 8226 multiple myeloma cells (UniProt Q10589 1-161); assay: flow cytometry
T1 chain: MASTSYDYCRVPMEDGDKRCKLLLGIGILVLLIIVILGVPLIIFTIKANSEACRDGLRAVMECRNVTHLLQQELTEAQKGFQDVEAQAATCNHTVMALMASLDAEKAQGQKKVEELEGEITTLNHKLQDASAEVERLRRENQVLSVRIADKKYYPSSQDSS

[2] = molecular target: T2, His-tagged HM1.24 antigen, residues N49-A163 of the extracellular domain (UniProt Q10589 49-163); assay: Biacore
T2 chain: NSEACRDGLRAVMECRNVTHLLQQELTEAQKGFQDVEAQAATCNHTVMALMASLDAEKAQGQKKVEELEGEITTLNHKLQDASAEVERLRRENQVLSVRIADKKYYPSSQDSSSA

[3] = molecular target: T2, His-tagged HM1.24 antigen, residues …; assay: Biacore
[4] = molecular target: T2, His-tagged HM1.24 antigen, residues …; assay: Biacore
[5] = molecular target: T2, His-tagged HM1.24 antigen, residues …; assay: Biacore

| EC50 [1] [pM] | Kd [2] [pM] | Kd [3] [pM] | koff [4] [s⁻¹] | koff [5] [s⁻¹] | Binder |
| --- | --- | --- | --- | --- | --- |
| 5830 | – | – | – | – | B1 |
| 13100 | – | – | – | – | B2 |
| 2220 | 52.2 | 63.7 | – | – | B3 |
| 2460 | 51.1 | 53.7 | – | – | B4 |
| – | 62 | 71.1 | 0.0023 | 0.00203 | B5 |
| – | – | – | 0.0039 | 0.00371 | B6 |
| 1890 | 38.1 | 57.2 | 0.00243 | 0.00352 | B7 |
| – | – | – | 0.00206 | 0.0032 | B8 |
| – | – | – | 0.00279 | 0.003 | B9 |
| – | – | – | 0.00298 | 0.00298 | B10 |
| 3550 | – | – | 0.00299 | 0.00418 | B11 |
| 3260 | – | – | – | – | B12 |
| – | – | – | 0.0029 | 0.004 | B13 |
| – | – | – | 0.00274 | 0.00352 | B14 |
| – | – | – | 0.00218 | 0.00266 | B15 |
| – | – | – | 0.00327 | 0.00374 | B16 |
| – | – | – | 0.00201 | 0.00251 | B17 |
| – | – | – | 0.00229 | 0.00261 | B18 |
| 2520 | 26.9 | 57.4 | 0.00241 | 0.00318 | B19 |
